# In US20190263918A1 (SHANGHAI JIAO TONG UNIVERSITY SCHOOL OF MEDICINE, published 2019):
# Substitutions are numbered along the chain they refer to.
# T1: murine DR5 on MC38 cells (murine, UniProt Q9QZM4 53-381)
# T1 construct: whole, on cells; also called mDR5
# T1 sequence (looked up): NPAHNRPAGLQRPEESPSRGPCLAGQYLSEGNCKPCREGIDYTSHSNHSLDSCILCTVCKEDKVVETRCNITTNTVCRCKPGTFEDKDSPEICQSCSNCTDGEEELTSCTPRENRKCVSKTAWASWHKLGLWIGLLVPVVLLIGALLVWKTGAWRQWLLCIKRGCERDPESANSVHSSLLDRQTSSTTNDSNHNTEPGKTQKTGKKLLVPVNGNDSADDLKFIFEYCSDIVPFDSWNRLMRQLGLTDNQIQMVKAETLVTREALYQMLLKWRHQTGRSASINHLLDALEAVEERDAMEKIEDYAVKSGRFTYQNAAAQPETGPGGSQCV
# T2: recombinant murine CD40 protein (murine, UniProt P27512 24-193, limits assumed)
# T2 construct: Bought; coated on the ELISA plate; also called mouse CD40; mCD40
# T2 sequence (looked up): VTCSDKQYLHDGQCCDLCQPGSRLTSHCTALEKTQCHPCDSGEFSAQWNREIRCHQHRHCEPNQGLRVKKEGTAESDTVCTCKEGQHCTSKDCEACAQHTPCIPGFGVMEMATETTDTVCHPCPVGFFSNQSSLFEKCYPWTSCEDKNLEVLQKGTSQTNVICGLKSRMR
# T3: human FcγRIIA-R131 extracellular domain protein (human, UniProt P12318 34-217)
# T3 construct: extracellular domain; SPR: His-tagged, immobilised; ELISA: biotinylated; also called hFcγRIIA-R131; CD32a
# T3 sequence (looked up): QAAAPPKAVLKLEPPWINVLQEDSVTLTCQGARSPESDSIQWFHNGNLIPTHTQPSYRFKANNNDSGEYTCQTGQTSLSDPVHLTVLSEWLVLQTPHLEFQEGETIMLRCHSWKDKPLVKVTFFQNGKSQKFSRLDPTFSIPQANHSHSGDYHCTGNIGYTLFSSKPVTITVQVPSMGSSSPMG
# B1: Anti-mDR5-hIgG2 (antibody)
# heavy: QIQLQESGPGLVKPAQSLSLTCSITGFPITAGGYWWTWIRQFPGQKLEWMGYIYSSGSTNYNPSIKSRISITRDTAKNQFFLQLNSVTTEEDTAIYYCARAGTSYSGFFDSWGQGTLVTVSSASTKGPSVFPLAPCSRSTSESTAALGCLVKDYFPEPVTVSWNSGALTSGVHTFPAVLQSSGLYSLSSVVTVPSSNFGTQTYTCNVDHKPSNTKVDKTVERKCCVECPPCPAPPVAGPSVFLFPPKPKDTLMISRTPEVTCVVVDVSHEDPEVQFNWYVDGVEVHNAKTKPREEQFNSTFRVVSVLTVVHQDWLNGKEYKCKVSNKGLPAPIEKTISKTKGQPREPQVYTLPPSREEMTKNQVSLTCLVKGFYPSDIAVEWESNGQPENNYKTTPPMLDSDGSFFLYSKLTVDKSRWQQGNVFSCSVMHEALHNHYTQKSLSLSPGK
# light: DIQVTQSPSLLSASFGDKVTINCLVTQDITYYLSWYQQKSGQPPTLLIYNGNSLQSGVPSRFSGQYSGRTFTLSLSSLEPEDAGTYYCLQHYSVPFTFGGGTRLEIKRTVAAPSVFIFPPSDEQLKSGTASVVCLLNNFYPREAKVQWKVDNALQSGNSQESVTEQDSKDSTYSLSSTLTLSKADYEKHKVYACEVTHQGLSSPVTKSFNRGEC
# notes: Chimeric anti-murine DR5 antibody, heavy chain constant region G2; also called Anti-mDR5-IgG2
# B2: Anti-mDR5-hIgG1(V11) (antibody)
# heavy: QIQLQESGPGLVKPAQSLSLTCSITGFPITAGGYWWTWIRQFPGQKLEWMGYIYSSGSTNYNPSIKSRISITRDTAKNQFFLQLNSVTTEEDTAIYYCARAGTSYSGFFDSWGQGTLVTVSSATTKGPSVFPLAPSSKSTSGGTAALGCLVKDYFPEPVTVSWNSGALTSGVHTFPAVLQSSGLYSLSSVVTVPSSSLGTQTYICNVNHKPSNTKVDKRVEPKSCDKTHTCPPCPAPELLGDDSVFLFPPKPKDTLMISRTPEVTCVVVDVSDEDGEVKFNWYVDGVEVHNAKTKPREEQYNSTYRVVSVLTVLHQDWLNGKEYKCKVSNKALPRPIEKTISKAKGQPREPQVYTLPPSRDELTKNQVSLTCLVKGFYPSDIAVEWESNGQPENNYKTTPPVLDSDGSFFLYSKLTVDKSRWQQGNVFSCSVMHEALHNHYTQKSLSLSPGK
# light: B1 light
# notes: Chimeric anti-murine DR5 antibody, heavy chain constant region V11(H1)
# B3: Anti-mDR5-IgG2(V11) (antibody)
# heavy: QIQLQESGPGLVKPAQSLSLTCSITGFPITAGGYWWTWIRQFPGQKLEWMGYIYSSGSTNYNPSIKSRISITRDTAKNQFFLQLNSVTTEEDTAIYYCARAGTSYSGFFDSWGQGTLVTVSSASTKGPSVFPLAPCSRSTSESTAALGCLVKDYFPEPVTVSWNSGALTSGVHTFPAVLQSSGLYSLSSVVTVPSSNFGTQTYTCNVDHKPSNTKVDKTVERKCCVECPPCPAPELLGDDSVFLFPPKPKDTLMISRTPEVTCVVVDVSDEDGEVKFNWYVDGVEVHNAKTKPREEQYNSTYRVVSVLTVLHQDWLNGKEYKCKVSNKALPRPIEKTISKAKGQPREPQVYTLPPSRDELTKNQVSLTCLVKGFYPSDIAVEWESNGQPENNYKTTPPVLDSDGSFFLYSKLTVDKSRWQQGNVFSCSVMHEALHNHYTQKSLSLSPGK
# light: B1 light
# notes: Chimeric anti-murine DR5 antibody, heavy chain constant region V11(H2), i.e. JAC1
# B4: Anti-mDR5-hIgG1-GASDALIE (antibody)
# heavy: B2 heavy with G241A, D242G, D243P, S244D, D273H, G276P, R335L, I337E
# light: B1 light
# B5: Anti-mCD40-hIgG1 (antibody)
# heavy: not shown
# light: DTVLTQSPALAVSPGERVTISCRASDSVSTLMHWYQQKPGQQPKLLIYLASHLESGVPARFSGSGSGTDFTLTIDPVEADDTATYYCQQSWNDPWTFGGGTKLELKRTVAAPSVFIFPPSDEQLKSGTASVVCLLNNFYPREAKVQWKVDNALQSGNSQESVTEQDSKDSTYSLSSTLTLSKADYEKHKVYACEVTHQGLSSPVTKSFNRGEC
# notes: Chimeric anti-murine CD40 antibody, heavy chain constant region G1
# B6: Anti-mCD40-hIgG1(V11) (antibody)
# heavy: EVQLVESDGGLVQPGRSLKLPCAASGFTFSDYYMAWVRQAPTKGLEWVASISYDGSSTYYRDSVKGRFTISRDNAKSTLYLQMDSLRSEDTATYYCGRHSSYFDYWGQGVMVTVSSATTKGPSVFPLAPSSKSTSGGTAALGCLVKDYFPEPVTVSWNSGALTSGVHTFPAVLQSSGLYSLSSVVTVPSSSLGTQTYICNVNHKPSNTKVDKRVEPKSCDKTHTCPPCPAPELLGDDSVFLFPPKPKDTLMISRTPEVTCVVVDVSDEDGEVKFNWYVDGVEVHNAKTKPREEQYNSTYRVVSVLTVLHQDWLNGKEYKCKVSNKALPRPIEKTISKAKGQPREPQVYTLPPSRDELTKNQVSLTCLVKGFYPSDIAVEWESNGQPENNYKTTPPVLDSDGSFFLYSKLTVDKSRWQQGNVFSCSVMHEALHNHYTQKSLSLSPGK
# light: B5 light
# notes: Chimeric anti-murine CD40 antibody, heavy chain constant region V11(H1)
# B7: Anti-mCD40-hIgG2(V11) (antibody)
# heavy: EVQLVESDGGLVQPGRSLKLPCAASGFTFSDYYMAWVRQAPTKGLEWVASISYDGSSTYYRDSVKGRFTISRDNAKSTLYLQMDSLRSEDTATYYCGRHSSYFDYWGQGVMVTVSSASTKGPSVFPLAPCSRSTSESTAALGCLVKDYFPEPVTVSWNSGALTSGVHTFPAVLQSSGLYSLSSVVTVPSSNFGTQTYTCNVDHKPSNTKVDKTVERKCCVECPPCPAPELLGDDSVFLFPPKPKDTLMISRTPEVTCVVVDVSDEDGEVKFNWYVDGVEVHNAKTKPREEQYNSTYRVVSVLTVLHQDWLNGKEYKCKVSNKALPRPIEKTISKAKGQPREPQVYTLPPSRDELTKNQVSLTCLVKGFYPSDIAVEWESNGQPENNYKTTPPVLDSDGSFFLYSKLTVDKSRWQQGNVFSCSVMHEALHNHYTQKSLSLSPGK
# light: B5 light
# notes: Chimeric anti-murine CD40 antibody, heavy chain constant region V11(H2), i.e. JAC1; also called anti-murine CD40 antibody comprising JAC1
# B8: Anti-hCD40-hIgG1(V11) (antibody)
# heavy: not shown
# light: DIQMTQSPSSVSASVGDRVTITCRASQGIYSWLAWYQQKPGKAPNLLIYTASTLQSGVPSRFSGSGSGTDFTLTISSLQPEDFATYYCQQANIFPLTFGGGTKVEIKRTVAAPSVFIFPPSDEQLKSGTASVVCLLNNFYPREAKVQWKVDNALQSGNSQESVTEQDSKDSTYSLSSTLTLSKADYEKHKVYACEVTHQGLSSPVTKSFNRGEC
# notes: Human anti-human CD40 antibody, heavy chain constant region V11(H1)
# B9: Anti-hCD40-hIgG2-SE (antibody)
# heavy: not shown
# light: B8 light
# notes: Human anti-human CD40 antibody, heavy chain constant region G2-SE
# B10: Anti-hCD40-hIgG2-HDPG (antibody)
# heavy: not shown
# light: B8 light
# notes: Human anti-human CD40 antibody, heavy chain constant region G2-HDPG, i.e. JAC4; also called anti-human CD40 antibody comprising JAC4
# B11: Anti-hCD40-hIgG2-SELF (antibody)
# heavy: not shown
# light: B8 light
# notes: Human anti-human CD40 antibody, heavy chain constant region G2-SELF, i.e. JAC3; also called anti-human CD40 antibody comprising JAC3
# Molecular target: T1, murine DR5 on MC38 cells
# Assay: flow cytometry on MC38 cells, FITC goat anti-human antibody
# Method: To detect the DR5 binding capacity of different anti-DR5 antibodies, MC38 cells were resuspended in ice-cold FACS buffer (PBS+0.5% FBS+2 mM EDTA+0.1% NaN3), to which 3.16-fold gradient dilutions of control and anti-DR5 antibody at concentrations ranging from 2 ng to 20 µg/mL were added, and the reaction was incubated at room temperature for 15 minutes. The system was washed twice with ice-cold FACS buffer, then flow-cytometry stained using FITC-labeled goat anti-human antibody (VECTOR FI-3080) on ice for 25 minutes in dark, which was then washed twice with FACS buffer and analyzed by flow-cytometry. For the antibodies, the DR5 binding capacity was positively correlated to FITC mean fluorescence intensity (MFI).
row,binding result,Binder
1,binds,B1
2,binds,B2
3,binds,B3
4,binds,B4

# Molecular target: T2, recombinant murine CD40 protein
# Assay: ELISA: plate coated with recombinant murine CD40, antibody in gradient dilutions, HRP-labelled goat anti-human IgG-Fc secondary antibody, A650
# Method: For assay on anti-human CD40 antibodies, an ELISA plate was coated with recombinant human CD40 protein (Novoprotein Scientific Inc.) overnight at atmospheric temperature, blocked using 1% BSA at room temperature for 2 h, and then washed three times with PBST (0.05% Tween 20 in PBS). To each well was added […] gradient dilutions of the human agonistic CD40 antibody. The plate was incubated at room temperature for 1 h and washed four times with PBST. Then, 100 ng/ml biotinylated secondary antibody against human Igκ light chain was added, incubated at room temperature for 1 h and washed 4 times with PBST. SAV-HRP at an appropriate concentration was added, incubated at room temperature for 1 h. Then, chromogenic substrate was added to react for 5 minutes, and optical absorbance was determined at 650 nm.
# For assay on anti-murine CD40 antibodies, the process was the same, expect that the plate was coated with recombinant murine CD40 protein (Novoprotein Scientific Inc.) and HRP-labeled goat anti-human IgG-Fc antibody was used as the secondary antibody.
row,EC50 (read off the curve),Binder
1,~0.1 µg/mL,B5
2,~0.1 µg/mL,B6
3,~0.1 µg/mL,B7

# Molecular target: T3, human FcγRIIA-R131 extracellular domain …
# Assay: ELISA: plate coated with the anti-human CD40 antibody, biotinylated human FcγRIIA-R131 extracellular domain, streptavidin-HRP, A650 [lower FcγRIIA-R131 panel]
# Method: The ELISA plate was coated with 100 μL antibody at an appropriate concentration overnight, supernatant being discarded. The plate was blocked with 1% BSA in PBS for 2 hours, followed by washing with PBST (PBS with 0.05% Tween 20). Then, biotinylated FcγR extracellular domain protein (Sino Biologic Inc., Beijing China) at a concentration as appropriate was added and incubated at room temperature for 1 hour, supernatant being discarded, followed by PBST wash. Streptavidin-HRP (BD Biosciences) was added and incubated at room temperature for 1 hour for detection of biotin protein. After removal of supernatant, developing solution was added to react for 20-40 minutes, and absorbance was determined at 650 nm (A650).
row,binding result,Binder
1,binds,B8
2,binds,B9
3,binds,B10
4,binds,B11
